± gives the standard deviation of the averaged measurements.
B1: library; numbered along this chain (parent)
chain: MAELLLGVNIDHIATLRNARGTAYPDPVQAAFIAEQAGADGITVHLREDRRHITDRDVRILRQTLDTRMNLEMAVTEEMLAIAVETKPHFCCLVPEKRQEVTTEGGLDVAGQRDKMRDACKRLADAGIQVSLFIDADEEQIKAAAEVGAPFIEIHTGCYADAKTDAEQAQELARIAKAATFAASLGLKVNAGHGLTYHNVKAIAAIPEMHELNIGHAIIGRAVMTGLKDAVAEMKRLMLEARG

Variants of: B1
Assay: pyridoxine titer in culture supernatant of strain expressing the PdxJ variant; higher = more PN produced (higher in vivo pathway activity of the PdxJ variant)
Details: host strain: E. coli LL006; 48 h; temperature: 37 °C; FM1.4
Experimental: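 Rosetta-designed single to quadruple mutants of E. coli PdxJ (PNP synthase) were expressed from pRSFDuet-1 in the engineered chassis E. coli LL006 (MG1655 ΔpdxH::pdxST, pta::Eme_pdxP). Strains were grown in 24 deep-well plates in 2 mL FM1.4 glycerol medium at 37 °C and 800 rpm for 48 h. Extracellular pyridoxine (PN) titer was quantified by HPLC with fluorescence detection; two biological replicates, with the WT pdxJ strain (LL137, about 0.5 mg/L) as control.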

Variant	pyridoxine titer [mg/L]
A23T V44I T196R L212I	3.37 ± 1.5
E100I V101L T196C	0.81 ± 0.21
I10L V101L E104T I218M	0
T196C I218L	0.22 ± 0.057
A19Q G21M T103L	0.49 ± 0.028
D11N	1.88 ± 0.18
V44C G194C N213I I218L	2.07 ± 0.077
T22V	1.29 ± 0.091
I218V	0.374 ± 0.063
H155I L212I	0.36
I10L E104T I218L	3.74 ± 0.56
A23T E104T G194K L212I	0.349 ± 0.013
G7L N213I	0.6 ± 0.11
I13V T196C	2.15 ± 0.18
G21M T196C	0.68 ± 0.042
G194C L195I	0.26
A23T E104T T196V L212I	2.61 ± 0.1
I13V E104T T196R L212I	4.01 ± 0.7
I13V V101L E104T T196C	1.04 ± 0.83
I10L A23W V101L E104T	1.8 ± 0.37
I10L T103L E104T	8.08 ± 0.54
I10L A23T G194C	1.27 ± 0.028
A23T V44I T196W L212I	2.89 ± 0.96
H155I	3.05 ± 1.1
T15I V101L T196C	0.44
I10L T103L	1.81 ± 0.042
I10L A19C V101L E104T	0.41 ± 0.019

Variant	pyridoxine titer [mg/L]
I10L A23T T103L	0.24
A23T A217V	1.12 ± 0.18
I10L T22V	6.01 ± 0.81
I10L T22V A23T I218M	0.2811 ± 0.0013
A23T G194C T196F I219G	0.237 ± 0.011
A23T I219G	0.76 ± 0.16
A23T T103L L212I	0.46 ± 0.014
I13V E100I E104T T196C	1.25 ± 0.031
G194C T196V N213I I218L	2.28 ± 1
I10L V101L E104T T196V	6.81 ± 0.15
A23T T196W L212I	1.71 ± 0.54
A23T V44I L212I I219W	3.27 ± 0.26
A217V I219G	0.77 ± 0.11
L212I A217V	0.69 ± 0.042
G7M T196C L212I	6.32 ± 1.8
A19Q V44I	0.875 ± 0.47
I13V I154L T196C	0.52 ± 0.014
G7M E104T G194C I218L	0.955 ± 0.033
I13V E100W E104T L212I	0.293 ± 0.15
I10L E100I I218L	0.24 ± 0.16
I10L E104T I218L I219M	0.32 ± 0.054
I10L E104T I218L I219W	0.561 ± 0.22
I13V A217V	1.81 ± 0.057
V101L E104T A217V	1.17 ± 0.057
A23T I154L	1.23 ± 0.099
A23T E104T I154L	2.31 ± 0.92
A19Q	1.02 ± 0.045

Variant	pyridoxine titer [mg/L]
V44I	0.719 ± 0.33
T15C A19Q V44I	0.48 ± 0.057
L212I	4.92 ± 3.9
H155I I218L	0.66 ± 0.014
T15I T196C	1.08 ± 0.071
G7L	0.9583 ± 0.0052
I10L T22V E104T	0.875 ± 0.11
G21M T103L	0.63 ± 0.33
I13V G21M E104T T196C	1.98 ± 0.077
E104T G194C I218L	9.71 ± 0.22
A217V	3.92 ± 2
I10L A23T E104T I219C	3.27 ± 0.22
T103L	3.2 ± 0.14
I13V E104T T196C I219C	0.274 ± 0.01
E100I T103L L212I	0.66 ± 0.47
N213I	1.76 ± 0.13
G7I E104T G194C I218L	2.32 ± 0.19
H12M A14I T196C	1.49 ± 0.28
Y24I E100I	0.81 ± 0.028
I10L A19L A23T	0.2 ± 0.028
I10L T22V A23T I219C	1.49 ± 0.02
I10L A23T	1.39 ± 0.2
E104T G194C T196V I218L	6.11 ± 7.1
H155I N213I	0.26
V101L A217V	0.74 ± 0.2
I10L G194C I218L I219L	1.09 ± 0.14
I13V E100I L212I	6.04 ± 1.9

Variant	pyridoxine titer [mg/L]
A23T H155I L212I	0.63 ± 0.014
I10L T22V A23T	6.93 ± 0.49
N213I I218L	1.1 ± 0.14
E104T	0.334 ± 0.033
I10L I13V H155I L212I	1.66 ± 0.076
I13V E104T L212I	6.61 ± 2.6
G194C N213I I218L	9.12 ± 0.45
L195I	0.848 ± 0.15
V101L L212I	0.72 ± 0.042
A23T V44I L212I	6.75 ± 0.099
I154L I219G	1.93
I13V	4.14 ± 0.062
I10L H12L T103L	0.18 ± 0.028
A23T V44I E104T L212I	4.95 ± 0.43
I10L T22V E104T H155N	2.5 ± 0.35
E104T I219G	2.75 ± 3.3
I13V T103L E104T T196C	0.233 ± 0.009
I10L T22V A23W E104T	2.06 ± 0.39
A23T L212I	1.09 ± 0.79
I10L V101L T103L E104T	1.611 ± 0.0023
V101L E104T L212I	0.49 ± 0.028
E100I V101L	2.12 ± 0.11
I10L G194C T196L I218L	0.562 ± 0.075
E100I E104T	0.98 ± 0.2
